Source: PMC10849960 (2023)
Ends that are not written are not given here.

T1: Mcl-1 (UniProt Q07820 1-350)
T1 chain: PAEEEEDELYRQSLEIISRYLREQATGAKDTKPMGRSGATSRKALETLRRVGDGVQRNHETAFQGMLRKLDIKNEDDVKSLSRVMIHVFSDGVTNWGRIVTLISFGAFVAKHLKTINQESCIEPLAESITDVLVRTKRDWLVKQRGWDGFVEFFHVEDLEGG


Assays:
411 [1] = assay: ITC
[2] = molecular target: Hallucinated Bid binder (7 nM); assay: ITC
29 [3] = assay: ITC
411 [4] = assay: FP
361 [5] = assay: FP
29 [6] = assay: FP
Mcl-1 [7] = molecular target: T1, Mcl-1; assay: ITC
Mcl-1 [8] = molecular target: T1, Mcl-1; assay: FP
361 [9] = assay: ITC; 10 °C
[10] = molecular target: best parametrically designed PTH binder; assay: split NanoBiT

Row | Kd 411 [1] [nM] | Kd [2] [nM] | Kd 29 [3] [nM] | Kd 411 [4] [nM] | Kd 361 [5] [nM] | Kd 29 [6] [nM] | Kd (Mcl-1 [7]) [nM] | Kd (Mcl-1 [8]) [nM] | Kd 361 [9] [nM] | Kd [10] [nM] | Binder
1 | 410 | 25 | 180 | 23 | 490 | 40 | 770 | 106 | 1200 | – | SESQEDIIRNIARHLAQVGDSMDRSIPPGLVNGL (also: fluorescently labelled (label and position not shown)) [Bid BH3 peptide]
2 | – | – | – | – | – | – | – | – | – | > 1000 | SVSEIQLMHNLGKHLNSMERVEWLRKKLQDVHNF (also: fluorescently labelled (label and position not shown)) [parathyroid hormone (PTH)]
